Experimental data taken from patent US20070099822A1, “Regulation of tissue mineralization and phosphate metabolism by asarm peptides” (priority 2003, published 2007).

Tested on: Male ICR-Swiss mice
Assay: Intraperitoneal administration of Hu-MEPE and PTH (1-34) into mice, serum and urine assays
Format: in vivo
Conditions: for serum phosphate: vehicle 11.94; for serum 1,25-dihydroxy vitamin-D3: vehicle 25.2; for serum alkaline phosphatase: vehicle 65.06
Description: Intraperitoneal administration of Hu-MEPE and PTH (1-34) into mice. Male ICR-Swiss mice were used as recipients for intraperitoneal administration (100 μl) of 0.1% phosphate-buffered saline/0.1% bovine serum albumin (vehicle) and experimental conditions (Hu-MEPE and PTH 1-34) dissolved in 100 μL of vehicle. Two separate (repeat) experiments were conducted consisting of four groups with 6 and 7 animals per group. The control group was administered with 100 μL of vehicle (Group-1). Group-2 consisted of animals administered with 0.8 μg/injection of parathyroid hormone (PTH 1-34). Group 3 were injected with 0.4 μg/injection of Hu-MEPE and Group-4 with 4 μg/injection of Hu-MEPE. On day one, three bolus injections were given at 0, 3 h, and 6 h. Serum samples were then collected via retro-orbital bleed one hour after the 6 h bolus administration. The next day or 30 hours after the first bolus a fourth bolus (same amount) was given and after 1 h the animals were sacrificed and serum prepared after cardiac exsanguination. The total amounts of PTH and MEPE administered over the 30 h were 80 μg/kg/30 h PTH 1-34, 40 μg/kg/30 h Hu-MEPE (MEPE-40) and 400 μg/kg/30 h Hu-MEPE (MEPE-400). Each group was placed in a separate metabolic cage and urine was collected for the 6-hour period. After the first 6-hour urine collection mice were replaced in thoroughly cleaned metabolic cages for the remaining 24 hours. The second 24-hour urine was collected immediately after the animals were sacrificed. The urine volumes for the second and first collections were measured. Collecting urine samples from large numbers of small mice over the time frame of the experiment was not feasible. Therefore, urine samples from each group (n=7) were pooled and volumes measured via a specially designed collecting duct in the metabolic cage. To ensure reproducibility the experiment was repeated twice (the same changes occurred). To calculate the fractional excretion of phosphate (FEP) the following equation was used: 100−(100×(1−(A/B))) where A=(urine phosphorus in mg/dL)×(serum creatinine in mg/dL) and B=(urine creatinine in mg/dL)×(serum phosphorus in mg/dL). To calculate renal phosphorus clearance (RPC) in mL/minute following computation was used: (urine phosphorus in mg/dL)×(urinary volume in mL)/((serum phosphorus in mg/dL)×(time of collection in minutes)). The phosphate excretion index (PEI) was calculated using the same method described by Shimada et al. (Cloning and characterization of FGF23 as a causative factor of tumor-induced osteomalacia, Proc Natl Acad Sci USA 98:6500-6505, 2001) using the following formula: ((urinary concentration of phosphorus in mg/dL)/(serum concentration of phosphorus in mg/dL))/(total urinary creatinine in mg).
Serum and urine assays. Serum and urine assays for phosphate, calcium, chloride, potassium, creatinine, glucose and alkaline phosphatase were accomplished using 96 well format KC4-spectrophotometer multiplate kinetic/end-point analyses using routine methods and diagnostic-kits Sigma-Diagnostics). Serum 1,25-dihydroxy vitamin-D3 levels were estimated using the method of Reinhardt, et al. (A microassay for 1,25-dihydroxyvitamin D not requiring high performance liquid chromatography: application to clinical studies, J Clin Endocrinol Metab 58:91-98, 1984). Analysis of data for fractional excretion of phosphate (FEP) was carried out following the same method described previously by Shimada et al. (Mutant FGF-23 responsible for autosomal dominant hypophosphatemic rickets is resistant to proteolytic cleavage and causes hypophosphatemia in vivo, Endocrinology 143:3179-82, 2002) for FGF23 bolus administration studies and by Nesbitt et al. (Crosstransplantation of kidneys in normal and Hyp mice: Evidence that the Hyp mouse phenotype is unrelated to an intrinsic renal defect, J Clin Invest 89:1453-59, 1992) for renal cross-transplantation experiments in Hyp mice.
Statistical methods. […]

B1: Hu-MEPE: purified insect expressed full-length recombinant human MEPE (Matrix Extracellular Phosphoglycoprotein) (protein)
chain: PTFQPQTEKTKQSCVEEQRQEEKNKDNIGFHHLGKRINQELSSKENIVQERKKDLSLSEASENKGSSKSQNYFTNRQRLNKEYSISNKENTHNGLRMSIYPKSTGNKGFEDGDDAISKLHDQEEYGAALIRNNMQHIMGPVTAIKLLGEENKENTPRNVLNIIPASMNYAKAHSKDKKKPQRDSQAQKSPVKSKSTHRIQHNIDYLKHLSKVKKIPSDFEGSGYTDLQERGDNDISPFSGDGQPFKDIPGKGEATGPDLEGKDIQTGFAGPSEAESTHLDTKKPGYNEIPEREENGGNTIGTRDETAKEADAVDVSLVEGSNDIMGSTNFKELPGREGNRVDAGSQNAHQGKVEFHYPPAPSKEKRKEGSSDAAESTNYNEIPKNGKGSTRKGVDHSNRNQATLNEKQRFPSKGKSQGLPIPSRGLDNEIKNEMDSFNGPSHENIITHGRKYHYVPHRQNNSTRNKGMPQGKGSWGRQPHSNRRFSSRRRDDSSESSDSGSSSESDGD
What does the source list for B1?
urine phosphate (7 h, MEPE-40 i.p., vehicle 31.8): 41.0 mg/dL; fractional excretion of phosphate (FEP) (7 h, MEPE-400, vehicle 7.8%): 14.43%; urine phosphate (7 h, MEPE-400 i.p., vehicle 31.8): 56.1 mg/dL; serum phosphate (31 h, MEPE-40 (40 ug/kg/30 h) i.p., not statistically significant): 10.6 mg/dL; serum 1,25-dihydroxy vitamin-D3 (31 h, MEPE-40, pooled): 31.5 pg/mL; serum alkaline phosphatase (31 h, MEPE-40): 45.63 U/L; serum 1,25-dihydroxy vitamin-D3 (31 h, MEPE-400, pooled): 45.05 pg/mL; fractional excretion of phosphate (FEP) (31 h, MEPE-400, vehicle 28.7%): 65.0%; serum alkaline phosphatase (31 h, MEPE-400): 46.31 U/L; urine phosphate vs vehicle (31 h, low-dose MEPE-40): not significantly different; serum phosphate (31 hours, MEPE-400 (400 ug/kg/30 h) i.p.): 8.23 mg/dL; urine phosphate (31 h second urine, MEPE400, vehicle 175.9): 297.4 mg/dL; serum phosphate vs vehicle (after 7 hours, i.p., PTH and MEPE animals): no significant differences; serum calcium vs vehicle (after 7 hours, PTH 80 ug/kg/30 h, low Hu-MEPE dose): not significantly different; FEP vs vehicle (low dose MEPE-40): not significantly different
